This sample holds only a part of the variants without activity.
B1: TPR 5TU (parent)
chain: GGAUCUUCUCGAUCUAACAAAAAAGACAAAUCUGCCACAAAGCUUGAGAGCAUCUUCGGAUGCAGAGGCGGCAGCCUUCGGUGGCGCGAUAGCGCCAACGUUCUCAACUAUGACACGCAAAACGCGUGCUCCGUUGAAUGGAGUUUAUCAUG

Variants of: B1
Assay: polymerase ribozyme fitness, log enrichment relative to wild type (log ratio); higher = more active; in vitro selection for triplet polymerase activity
In short: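 Fitness is a logarithmic measure of how a genotype enriched relative to the wild type, with replicate averages weighted by inverse variance. The logarithm uses base 2, and enrichment came from Illumina sequencing of input and output libraries. Those libraries were PCR-built, transcribed mutants of each subunit of a heterodimeric triplet polymerase ribozyme, passed through one triplicate in vitro selection round that included frozen incubation at −7 °C, gel excision of extended constructs and streptavidin-bead capture. Genotypes were kept only if they had ≥10 input reads and ≥1 read per output.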

Variant | polymerase ribozyme fitness (log ratio)
GGAUCUUCUCGAUCUAACAAAAAAGACAAAUCUGCCACAAAGCUUGAGAGCAUCUACGGAUGCAGAGGCGGCAGCCUUCGGUGGUGCGAUAGCGCCAACGUUCUCAACUAUGAAACGCAAAACGCGUGCUCCGUUGAAUGCAGUUUAUCAUG [U56A C85U C114A G141C] | ≤ -4.2
GGAUCUUCUCGAUCUAACAAAAAAGACAAAUCUGCCACAAAGCUUGAGAGCAUCUACGGAUGCAGAGGCGGCAGUCUUCGGUGGCGCGAUAGCGCCAACGUUCUCAACUAUGACACGCAACACGCGUUCUCCGUUGAAUGGAGUUUAUCAUG [U56A C75U A121C G128U] | -2.63
GGAUCUUCUCGAUCUAACAAAAAAGACAAAUCUGCCACAAAGCUUGAGAGCAUCUACGGAUGCAGAGGCGGCAGCUUUCGGUGGCGUGAUAGCGCCAACGUUCUCAACUAUGACACGCAAAACGCGUGGUCCGUUGAAUGGAGUUUAUCCUG [U56A C76U C87U C129G A150C] | ≤ -4.2
GGAUCUUCUCGAUCUAACAAAAAAGACAAAUCUGCCACAAAGCUUGAGAGCAUCUACGGAUGCAGAGGCGGCAGCCUUCGGUGGAGCGAUAGCGCCAACGGUCUCAACUAUGACACGCAAAACGCGUGCUCCGUUGAAUGGAGUUUAUCAUC [U56A C85A U101G G152C] | -4.1
GGAUCUUCUCGAUCUAACAAAAAAGACAAAUCUGCCACAAAGCUUGAGAGCAUCUACGGAUGCAGAGGCGGCAGCUUUCGGUGGCGCGAUAGCGCCAACGUUCUCAACUAUGACACGCAAAACGUGUGCUCCGUUGAAUGGAGUUUAGCAUU [U56A C76U C125U U148G G152U] | -3.64
GGAUCUUCUCGAUCUAACAAAAAAGACAAAUCUGCCACAAAGCUUGAGAGCAUCUACCCAUGCAGAGGCGGCAGCGUUCGGUGGCGCGAUAGCGCCAACGUUCUCAACUAUGACACGCAAAACGCGUGCUCCGUUGAAUGGAGUUUAUCAUG [U56A G58C G59C C76G] | ≤ -4.2
GGAUCUUCUCGAUCUAACAAAAAAGACAAAUCUGCCACAAAGCUUGAGAGCAUCUACAGAUGCAGAGGCGGCAGCCUUCGGUGGCGCGAUAGAGCCAACGUUCUCAACUAUGACACGCAAAACGCGUGCUCCGUUGAAUGGAGUUUAUCAUG [U56A G58A C93A] | -1.41
GGAUCUUCUCGAUCUAACAAAAAAGACAAAUCUGCCACAAAGCUUGAGAGCAUCUACAGAUGCAGAGGCGGCGGCCUUCGGUGGCGCGAUAGCGCUAACGUGCUCAACUAUGACACACAAAACGCGUGCUCCGUAGAAUGAAGUUUAUCAUG [U56A G58A A73G C96U U102G G117A U135A G141A] | ≤ -4.2
GGAUCUUCUCGAUCUAACAAAAAAGACAAAUCUGCCACAAAGCUUGAGAGCAUCUACUGAUGCAGAGGCGGCAGCCUUCGGUGGCGCGAUAGCCCCAACGUUCUCAACUAUGACACGCAAAACGCGUGCUCCGUUGAAUGGAGUGUAUCAUG [U56A G58U G94C U145G] | 0.0333
GGAUCUUCUCGAUCUAACAAAAAAGACAAAUCUGCCACAAAGCUUGAGAGCAUCUACAGAUGCAGAGGCGGCUGCCUUCGGUGGCGCGAUAGCGCGAACGUUCUCAACUAUGACACGCAAAACGCGUGCUCCGUUGAAUGGAGUUUAUCAUG [U56A G58A A73U C96G] | -1.81
GGAUCUUCUCGAUCUAACAAAAAAGACAAAUCUGCCACAAAGCUUGAGAGCAUCUACGGAUGCAGAGGCGGCAGCCUUCGGUGGCGCGAUAGUGCCAACGUGCUCAACUAUGACACGCAAAACGCGUGCUCCGUUGAAUAGAGUUUAUCAUG [U56A C93U U102G G140A] | ≤ -4.2
GGAUCUUCUCGAUCUAACAAAAAAGACAAAUCUGCCACAAAGCUUGAGAGCAUCUACGGAUGCAGAGACGGCAGCCUUCGGUGGCGCGAUAGCGCCAACGUUCUCAACUAUGACACGCAAAACGCGUGCUCCGUUGAAUGGAGUUUAUCAUG [U56A G68A] | -4.01
GGAUCUUCUCGAUCUAACAAAAAAGACAAAUCUGCCACAAAGCUUGAGAGCAUCUACGGAUGCAGAGGCGGCAGCCUUCGGUGGCGUGAUAGCGCCAACGUUCUCAACUAUGACACGCAAAACGCGUGCUGCGUUGAAUGGAGUUUAUCAUG [U56A C87U C131G] | -3.21
GGAUCUUCUCGAUCUAACAAAAAAGACAAAUCUGCCACAAAGCUUGAGAGCAUCUACGGAUGCAGAGGCGGCAGCCUUCGGUGGCGUGAUAGCGCCAACGUUCUCAACUAUGACACGCAAAACGCGUGCUCCGUUGAAUGGAGUUUAACAUG [U56A C87U U148A] | -3.33
GGAUCUUCUCGAUCUAACAAAAAAGACAAAUCUGCCACAAAGCUUGAGAGCAUCUACGUAUGCAGAGGAGGCAGCCUUCGGUGGCGUGAUAGCGCCAACGCUCUCAACUAUGACACGCAAAACGCGUGCUCCGUUGAAUUGAGUUUAUCAUG [U56A G59U C69A C87U U101C G140U] | -3.01
GGAUCUUCUCGAUCUAACAAAAAAGACAAAUCUGCCACAAAGCUUGAGAGCAUCUACGGAUGCAGAGGCGGCAGCCUUCGGUGGCGCGAUAGCGUCAACGUUCUCAACUAUGACACGCAAAACGCGUGCUCCGUUGAAUGGAGUUUAUCAUG [U56A C95U] | 0.199
GGAUCUUCUCGAUCUAACAAAAAAGACAAAUCUGCCACAAAGCUUGAGAGCAUCUACGGAUGCAGAGGCGGCAGCCUUCGGUGGUGCGAUAGCGCCAACGUUCUCAACUAUGACACGCAAAACGCGUGCUCCGUUGAAUGGAGCUUAUCAUG [U56A C85U U144C] | -0.306
GGAUCUUCUCGAUCUAACAAAAAAGACAAAUCUGCCACAAAGCUUGAGAGCAUCUACGGAUGCAGAGGCGGCAGCUUUCGGUGGCGCGAUAGCGCCAACGUUCUCAACUAUGCCACGCAAAACGCGUGCUCCGUUGAAUGGAGUUUAUCAUG [U56A C76U A113C] | -2.48
GGAUCUUCUCGAUCUAACAAAAAAGACAAAUCUGCCACAAAGCUUGAGAGCAUCUACGGAUGCAGAGGCGGCAGCCUUCGGUGGCGCGAUAGAGCCAGCGUUCUCAACUAUGACACGCAAAACGCGUGCUCCGUUGAAUGGAGUUUAUCAUG [U56A C93A A98G] | -2.63

From the RNAGym collection of RNA variant scans (doi:10.1073/pnas.2313332121)
